The values that follow come from the Human Domainome abundance scans (Beltran et al. 2025).

Sequences and labels used below:
B1: POU domain, class 3, transcription factor 3, residues 320 to 388; numbered along this chain, P20264 (parent)
chain: DDLEQFAKQFKQRRIKLGFTQADVGLALGTLYGNVFSQTTICRFEALQLSFKNMCKLKPLLNKWLEEAD

± gives the uncertainty stated by the source.

In the data set the parent is B1. In words: abundance fitness (aPCA) (normalised: wild type 0, dead -1); higher = more abundant; growth selection in yeast, the domain comes from the species named. The note with it: Homo sapiens.
Consider DDLEQFAKQFKQRRIKLGFTQADVGLALGTLYGNVFSQTTIHRFEALQLSFKNMCKLKPLLNKWLEEAD [C42H], for which the abundance fitness is -0.006 ± 0.24.

For DDLEQFAKQFKQRRIKLGFTQADVGLALGTLYGNVFSQTTINRFEALQLSFKNMCKLKPLLNKWLEEAD [C42N], the abundance fitness came out at 0.208 ± 0.04.

As for DDLEQFAKQFKQRRIKLGFTQADVGLALGTLYGNVFSQTTITRFEALQLSFKNMCKLKPLLNKWLEEAD [C42T], the abundance fitness is -0.176 ± 0.1.

In the case of DDLEQFAKQFKQRRIKLGFTQADVGLALGTLYGNVFSQTTISRFEALQLSFKNMCKLKPLLNKWLEEAD [C42S], the abundance fitness was -0.14 ± 0.089.

In the case of DDLEQFAKQFKQRRIKLGFTQADVGLALGTLYGNVFSQTTIPRFEALQLSFKNMCKLKPLLNKWLEEAD [C42P], the abundance fitness was -0.276 ± 0.092.

As for DDLEQFAKQFKQRRIKLGFTQADVGLALGTLYGNVFSQTTIGRFEALQLSFKNMCKLKPLLNKWLEEAD [C42G], the abundance fitness is -0.014 ± 0.048.

In the case of DDLEQFAKQFKQRRIKLGFTQADVGLALGTLYGNVFSQTTIRRFEALQLSFKNMCKLKPLLNKWLEEAD [C42R], the abundance fitness is 0.054 ± 0.061.

Take DDLEQFAKQFKQRRIKLGFTQADVGLALGTLYGNVFSQTTIARFEALQLSFKNMCKLKPLLNKWLEEAD [C42A]: the abundance fitness is 0.076 ± 0.079.

Regarding DDLEQFAKQFKQRRIKLGFTQADVGLALGTLYGNVFSQTTIIRFEALQLSFKNMCKLKPLLNKWLEEAD [C42I], the abundance fitness is 0.11 ± 0.17.

On to DDLEQFAKQFKQRRIKLGFTQADVGLALGTLYGNVFSYTTICRFEALQLSFKNMCKLKPLLNKWLEEAD [Q38Y], for which the abundance fitness was -0.207 ± 0.28.

Regarding DDLEQFAKQFKQRRIKLGFTQADVGLALGTLYGNVFSRTTICRFEALQLSFKNMCKLKPLLNKWLEEAD [Q38R], the abundance fitness is -0.103 ± 0.066.

On to DDLEQFAKQFKQRRIKLGFTQADVGLALGTLYGNVFSHTTICRFEALQLSFKNMCKLKPLLNKWLEEAD [Q38H], for which the abundance fitness was -0.524 ± 0.31.

Regarding DDLEQFAKQFKQRRIKLGFTQADVGLALGTLYGNVFSSTTICRFEALQLSFKNMCKLKPLLNKWLEEAD [Q38S], the abundance fitness was -0.082 ± 0.062.

For the variant DDLEQFAKQFKQRRIKLGFTQADVGLALGTLYGNVFSTTTICRFEALQLSFKNMCKLKPLLNKWLEEAD [Q38T], the abundance fitness was 0.079 ± 0.076.

On to DDLEQFAKQFKQRRIKLGFTQADVGLALGTLYGNVFSKTTICRFEALQLSFKNMCKLKPLLNKWLEEAD [Q38K], for which the abundance fitness was -0.18 ± 0.1.

Regarding DDLEQFAKQFKQRRIKLGFTQADVGLALGTLYGNVFSVTTICRFEALQLSFKNMCKLKPLLNKWLEEAD [Q38V], the abundance fitness is -0.421 ± 0.09.

DDLEQFAKQFKQRRIKLGFTQADVGLALGTLYGNVFSPTTICRFEALQLSFKNMCKLKPLLNKWLEEAD [Q38P]: the abundance fitness is -0.028 ± 0.12.

DDLEQFAKQFKQRRIKLGFTQADVGLALGTLYGNVFSLTTICRFEALQLSFKNMCKLKPLLNKWLEEAD [Q38L]: the abundance fitness is -0.531 ± 0.097.

With DDLEQFAKQFKQRRIKLGFTQADVGLALGTLYGNVFSNTTICRFEALQLSFKNMCKLKPLLNKWLEEAD [Q38N], the abundance fitness was -0.435 ± 0.38.

Regarding DDLEQFAKQFKQRRIKLGFTQADVGLALGTLYGNVFSMTTICRFEALQLSFKNMCKLKPLLNKWLEEAD [Q38M], the abundance fitness is -0.498 ± 0.11.

DDLEQFAKQFKQRRIKLGFTQADVGLALGTLYGNVFSQTTICRLEALQLSFKNMCKLKPLLNKWLEEAD [F44L]: the abundance fitness is -0.859 ± 0.18.

Take DDLEQFAKQFKQRRIKLGFTQADVGLALGTLYGNVFSQTTICRAEALQLSFKNMCKLKPLLNKWLEEAD [F44A]: the abundance fitness was -1.04 ± 0.43.

On to DDLEQFAKQFKQRRIKLGFTQADVGLALGTLYGNVFSQTTICRPEALQLSFKNMCKLKPLLNKWLEEAD [F44P], for which the abundance fitness was -1.02 ± 0.42.

For DDLEQFAKQFKQRRIKLGFTQADVGLALGTLYGNVFSQTTICRKEALQLSFKNMCKLKPLLNKWLEEAD [F44K], the abundance fitness is -0.696 ± 0.24.

Consider DDLEQFAKQFKQRRIKLGFTQADVGLALGTLYGNVFSQTTICRREALQLSFKNMCKLKPLLNKWLEEAD [F44R], for which the abundance fitness was -0.946 ± 0.19.

As to DDLEQFAKQFKQRRIKLGFTQADVGLALGTLYGNVFSQTTICRMEALQLSFKNMCKLKPLLNKWLEEAD [F44M], the abundance fitness was -0.725 ± 0.18.

Take DDLEQFAKQFKQRRIKLGFTQADVGLALGTLYGNVFSQTTICRGEALQLSFKNMCKLKPLLNKWLEEAD [F44G]: the abundance fitness was -0.772 ± 0.14.

On to DDLEQFAKQFKQRRIKLGFTQADVGLALGTLYGNVFSQTTICHFEALQLSFKNMCKLKPLLNKWLEEAD [R43H], for which the abundance fitness is -0.586 ± 0.2.

Consider DDLEQFAKQFKQRRIKLGFTQADVGLALGTLYGNVFSQTTICWFEALQLSFKNMCKLKPLLNKWLEEAD [R43W], for which the abundance fitness was -0.866 ± 0.31.

Turning to DDLEQFAKQFKQRRIKLGFTQADVGLALGTLYGNVFSQTTICQFEALQLSFKNMCKLKPLLNKWLEEAD [R43Q], the abundance fitness was -0.113 ± 0.3.

For the variant DDLEQFAKQFKQRRIKLGFTQADVGLALGTLYGNVFSQTTICTFEALQLSFKNMCKLKPLLNKWLEEAD [R43T], the abundance fitness is -0.946 ± 0.43.

For the variant DDLEQFAKQFKQRRIKLGFTQADVGLALGTLYGNVFSQTTICLFEALQLSFKNMCKLKPLLNKWLEEAD [R43L], the abundance fitness is -0.858 ± 0.17.

On to DDLEQFAKQFKQRRIKLGFTQADVGLALGTLYGNVFSQTTICEFEALQLSFKNMCKLKPLLNKWLEEAD [R43E], for which the abundance fitness was -0.076 ± 0.1.

As to DDLEQFAKQFKQRRIKLGFTQADVGLALGTLYGNVFSQTTICDFEALQLSFKNMCKLKPLLNKWLEEAD [R43D], the abundance fitness is -0.402 ± 0.26.

Turning to DDLEQFAKQFKQRRIKLGFTQADVGLALGTLYGNVFSQTTICCFEALQLSFKNMCKLKPLLNKWLEEAD [R43C], the abundance fitness is -0.447 ± 0.37.

On to DDLEQFAKQFKQRRIKLGFTQADVGLALGTLYGNVFSQTTICPFEALQLSFKNMCKLKPLLNKWLEEAD [R43P], for which the abundance fitness was -0.975 ± 0.5.

As to DDLEQFAKQFKQRRIKLGFTQADVGLALGTLYGNVFSQTTICGFEALQLSFKNMCKLKPLLNKWLEEAD [R43G], the abundance fitness was -0.798 ± 0.12.

On to DDLEQFAKQFKQRRIKLGFTQADVGLALGTLYGNVFSQTTICKFEALQLSFKNMCKLKPLLNKWLEEAD [R43K], for which the abundance fitness is -0.034 ± 0.11.

Consider DDLEQFAKQFKQRRIKLGFTQADVGLALGTLYGNVFSQTTICMFEALQLSFKNMCKLKPLLNKWLEEAD [R43M], for which the abundance fitness was -0.62 ± 0.47.
